In PMC2746243:

Molecular target: mutant M9R α-tropomyosin_(slow) (human) (UniProt P06753)
Test: far-Western, overlay or dot blot

Chain of UniProt P06753 (P06753 whole entry M9R): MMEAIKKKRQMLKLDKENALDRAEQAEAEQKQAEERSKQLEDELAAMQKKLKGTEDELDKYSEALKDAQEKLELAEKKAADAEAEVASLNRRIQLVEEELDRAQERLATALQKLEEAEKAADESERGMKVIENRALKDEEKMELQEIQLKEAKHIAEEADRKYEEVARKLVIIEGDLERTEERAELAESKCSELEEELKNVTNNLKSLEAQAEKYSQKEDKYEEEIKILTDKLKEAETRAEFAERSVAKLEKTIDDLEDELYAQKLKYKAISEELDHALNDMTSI

Recombinant human Tmod1 protein (from UniProt P28289 1-359) (natural protein)
percent of the binding to wild-type α-tropomyosin (slow): 10%
